This passage reports Fold diff results from US20220332804A1 (CSL INNOVATION, published 2022).

Residue numbers refer to the chain shown, from its start.

What all share (experiment): SPR, KD relative to WT C2;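 also: biacore SPR at 37 °C, anti-C2 mAbs captured via immobilised goat anti-human IgG, C2 alanine or serine surface mutants as analytes, 1:1 model fitted, double-referenced sensograms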
In general terms: Surface plasmon resonance follows binding to a sensor surface in real time, without labels.

Assay [1] has as its target T1, human C2 L453A (human, UniProt P06681 21-752).
T1 sequence: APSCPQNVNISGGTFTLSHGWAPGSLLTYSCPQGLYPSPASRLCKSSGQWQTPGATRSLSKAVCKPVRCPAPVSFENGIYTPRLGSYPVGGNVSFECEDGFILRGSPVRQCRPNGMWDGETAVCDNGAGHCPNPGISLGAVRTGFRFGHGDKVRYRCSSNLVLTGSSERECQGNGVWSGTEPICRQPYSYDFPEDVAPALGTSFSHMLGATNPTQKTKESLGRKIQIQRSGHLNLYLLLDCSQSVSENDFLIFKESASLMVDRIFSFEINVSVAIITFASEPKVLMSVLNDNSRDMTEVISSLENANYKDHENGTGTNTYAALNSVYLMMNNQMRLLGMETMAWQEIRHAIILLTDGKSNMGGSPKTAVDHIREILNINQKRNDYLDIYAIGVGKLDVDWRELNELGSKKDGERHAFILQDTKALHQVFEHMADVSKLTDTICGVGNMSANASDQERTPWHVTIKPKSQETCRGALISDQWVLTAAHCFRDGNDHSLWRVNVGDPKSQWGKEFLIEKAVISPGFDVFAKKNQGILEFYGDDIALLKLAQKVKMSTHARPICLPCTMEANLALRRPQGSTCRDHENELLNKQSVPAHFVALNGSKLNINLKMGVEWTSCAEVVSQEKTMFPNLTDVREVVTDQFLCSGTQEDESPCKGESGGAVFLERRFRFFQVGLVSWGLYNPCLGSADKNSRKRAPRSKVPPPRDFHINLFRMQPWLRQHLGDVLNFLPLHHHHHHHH

The target of assay [2] is T2, human C2 N380A (human, UniProt P06681 21-752).
T2 sequence: T1 sequence with N360A, A433L

The target in assay [3] is T3, human C2 D404A (human, UniProt P06681 21-752).
T3 sequence: T1 sequence with D384A, A433L

Assay [4] addresses T4, human C2 V455A (human, UniProt P06681 21-752).
T4 sequence: T1 sequence with A433L, V435A

B1: RF16-226 (antibody, human IgG4 S228P, lambda)
heavy: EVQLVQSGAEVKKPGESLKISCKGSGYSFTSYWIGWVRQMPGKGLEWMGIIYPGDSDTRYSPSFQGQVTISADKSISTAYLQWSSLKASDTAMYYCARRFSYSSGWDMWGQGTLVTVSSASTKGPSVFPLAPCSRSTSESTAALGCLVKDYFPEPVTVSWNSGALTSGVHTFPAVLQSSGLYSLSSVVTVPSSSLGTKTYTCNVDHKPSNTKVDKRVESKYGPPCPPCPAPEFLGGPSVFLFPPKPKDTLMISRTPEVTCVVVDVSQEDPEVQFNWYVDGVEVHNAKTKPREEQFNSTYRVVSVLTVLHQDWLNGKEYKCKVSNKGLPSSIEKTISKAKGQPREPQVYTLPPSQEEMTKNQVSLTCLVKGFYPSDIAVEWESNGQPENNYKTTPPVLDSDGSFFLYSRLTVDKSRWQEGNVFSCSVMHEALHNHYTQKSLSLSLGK
light: SYELTQPPSVSVSPGQTARITCSGDALTSKYVAWYQQKSGLAPLLVIYEDTRRPSGIPAKFSGSSSGSVATLTISGAHGDDEADYYCYSTDASGHQRVFGGGTKLTVLSQPKAAPSVTLFPPSSEELQANKATLVCLISDFYPGAVTVAWKADGSPVKAGVETTKPSKQSNNKYAASSYLSLTPEQWKSHRSYSCQVTHEGSTVEKTVAPTECS
notes: pH-dependent anti-C2 antibody from a phage display library; also called WT
In the case of B1, the Fold diff in assay [1] came out at 3 fold; in assay [2] it was 2 fold; in assay [3] it was 1 fold; in assay [4], 1 fold.
